We go through one molecule from patent US20180140679A1, “MODULATION OF AXL RECEPTOR ACTIVITY IN COMBINATION WITH CYTOREDUCTIVE THERAPY” (THE BOARD OF TRUSTEES OF THE LELAND STANFORD JUNIOR …, priority 2016, published 2018).

Test [1] has as its target T1, free, circulating Gas6 (Mus musculus, UniProt Q61592).
T1 construct: from tissue; host or cells: mouse serum (nude nu/nu mice)
T1 sequence (Q61592 28-674): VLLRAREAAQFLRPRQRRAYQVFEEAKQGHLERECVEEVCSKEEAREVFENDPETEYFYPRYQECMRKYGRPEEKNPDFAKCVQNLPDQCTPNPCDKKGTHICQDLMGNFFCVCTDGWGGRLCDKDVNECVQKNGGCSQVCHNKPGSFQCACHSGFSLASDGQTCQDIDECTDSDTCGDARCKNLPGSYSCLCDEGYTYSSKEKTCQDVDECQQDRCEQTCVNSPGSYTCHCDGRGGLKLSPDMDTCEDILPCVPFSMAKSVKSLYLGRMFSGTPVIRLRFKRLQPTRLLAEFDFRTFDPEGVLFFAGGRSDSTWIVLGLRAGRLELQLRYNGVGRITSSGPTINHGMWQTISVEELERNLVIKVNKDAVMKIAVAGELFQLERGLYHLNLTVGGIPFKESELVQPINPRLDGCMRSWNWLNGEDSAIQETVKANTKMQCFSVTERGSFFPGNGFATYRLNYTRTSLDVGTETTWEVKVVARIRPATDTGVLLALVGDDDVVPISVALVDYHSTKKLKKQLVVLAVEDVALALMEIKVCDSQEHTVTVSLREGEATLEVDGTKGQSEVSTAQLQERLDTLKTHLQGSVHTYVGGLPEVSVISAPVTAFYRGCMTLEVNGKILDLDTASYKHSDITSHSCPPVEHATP
The note with it: as previously determined using the same assay; cited from earlier work.

Test [2] concerns the target T1, free, circulating Gas6. Put plainly: In vivo Gas6 serum ELISA (sequestration of endogenous Gas6). The note with it: single 0.5 mg/kg dose via tail vein, up to 36 hours. On the procedure: The amount of free, circulating Gas6 (i.e. not neutralized by the decoy receptor) was then quantified.
All doses were formulated in a 200 μl volume. Two mice were analyzed per condition and untreated mice were used to determine baseline Gas6 levels. At 2, 12, 24, and 36 h post-administration, retro-orbital bleeds were performed to obtain blood samples from which serum was isolated and free Gas6 was measured as previously described. The amount of free Gas6 in each sample was determined using a sandwich ELISA. In this assay, MYD1 Fc was used as a capture reagent in order to ensure the detection of free, unbound Gas6, and not Gas6/Axl Fc complexes. Detection of Gas6 was carried out using a biotinylated polyclonal anti-mouse Gas6 antibody (BAF986, R&D Systems, INC., Minneapolis, Minn.) and streptavidin HRP (#4800-30-06 Trevigen Inc., Gaithersburg, Md.).

The subject of test [3] is Axl and FLT3 phosphorylation in AML cells. The test can be described thus: Western blot of Axl and FLT3 phosphorylation in AML cells. The test is classed as cell-based, human. An excerpt:
Cell lysates subjected to sodium dodecyl sulfate polyacrylamide gel electrophoresis followed by transfer to nitrocellulose membrane. The membranes were then probed with primary antibodies against total Axl (AF154, R&D Systems, INC., Minneapolis, Minn.), phospho-Axl (T702; #5724, CST, Danvers, Mass.), total Akt (#4691 CST, Danvers, Mass.), phosphor-Akt (#4060, CST, Danvers, Mass.), anti-MERTK (#ab52968, Abcam, Cambridge, Mass.), phospho-MERTK (#ab14921 Abcam, Cambridge, Mass.), anti-Tyro3 (#5585, CST, Danvers, Mass.), phospho-Tyro3 (#orb186274, Biorbyt LLC, Berkely, Calif.), Bcl-2 Family Antibody Sampler Kit (#9934, CST, Danvers, Mass.), anti-Chk2 (#sc-5278, Santa Cruz Biotech, INC., Santa Cruz, Calif.), anti-XRCC1 (#2735, CST, Danvers, Mass.), anti-γH2AX (Merck Millipore #05636, Darmstadt, Germany), anti-phospho-ATM (#ab81292, Abcam, Cambridge, Mass.), anti-ATM (#ab78, Abcam, Cambridge, Mass.), anti phospho-ATR (#2853, CST, Danvers, Mass.), anti-ATR (#2790, CST, Danvers, Mass.), anti-Phospho Chk1 (#12302, CST, Danvers, Mass.), anti-Phospho Chk2 (#2197, CST, Danvers, Mass.) and anti-RPA32 (#2208, CST, Danvers, Mass.) at 4° C. overnight. The blots were then washed and probed with HRP conjugated anti-goat (#sc-2020, Santa Cruz Biotech, INC., Santa Cruz, Calif.), or HRP conjugated anti-rabbit (#A16110, Thermo Fisher Scientific, Walthan, Mass.) as appropriate. The blots were developed with Bio-Rad Western C developing reagent (#170-5060 Bio-Rad, Hercules, Calif.) and visualized with Chemidoc digital imager (#1708280, Bio-Rad, Hercules, Calif.).
Background: In western blotting, separated proteins are transferred to a membrane and probed.

Another test deals with T2, human Gas6 (Homo sapiens, UniProt Q14393).
T2 sequence (Q14393 31-678): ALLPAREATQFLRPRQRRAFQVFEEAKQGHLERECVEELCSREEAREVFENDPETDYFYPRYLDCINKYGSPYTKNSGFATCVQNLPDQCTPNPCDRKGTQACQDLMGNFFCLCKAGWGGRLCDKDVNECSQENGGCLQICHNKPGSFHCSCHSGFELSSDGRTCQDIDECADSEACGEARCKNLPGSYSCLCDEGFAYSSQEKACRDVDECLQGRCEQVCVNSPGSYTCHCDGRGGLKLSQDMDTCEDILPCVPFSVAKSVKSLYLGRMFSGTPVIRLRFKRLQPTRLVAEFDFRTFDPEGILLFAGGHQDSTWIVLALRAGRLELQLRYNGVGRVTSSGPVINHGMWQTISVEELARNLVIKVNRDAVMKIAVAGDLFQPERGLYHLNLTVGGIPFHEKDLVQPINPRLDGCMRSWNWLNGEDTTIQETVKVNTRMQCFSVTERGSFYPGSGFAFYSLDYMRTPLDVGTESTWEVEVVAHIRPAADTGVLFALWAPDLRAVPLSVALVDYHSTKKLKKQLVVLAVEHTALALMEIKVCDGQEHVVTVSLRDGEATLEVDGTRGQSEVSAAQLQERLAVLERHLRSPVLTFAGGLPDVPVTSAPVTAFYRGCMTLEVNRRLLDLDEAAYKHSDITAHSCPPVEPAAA
Put plainly: Kinetic Exclusion Assay (KinExA), Gas6-Axl binding, human Gas6. How it is done:
Equilibrium binding and association rate constants for all Gas6-Axl interactions were measured on a KinExA3200 instrument (Sapidyne Instruments Inc. Boise, Id.) as previously described. For equilibrium binding studies, three independent titrations were completed for each Axl Ig1 or Axl Fc fusion unless otherwise noted. […] After the appropriate incubation time, reactions were flowed over MYD1 Fc coated beads and captured free Gas6 was probed using an anti-6×HIS Dylight 649 antibody (#200-343-382, Rockland Immunochemicals Inc., Pottstown, Pa.). Each sample was measured twice and data from the three independent equilibrium binding experiments were globally analyzed using n-curve analysis in the KinExA Pro 3.6.2 software (Sapidyne Instruments Inc. Boise, Id.) to obtain the Kd value. To analyze the association rate of the interactions, the direct inject method was used. For these experiments, 1 μM Axl was serially diluted 1:2.5, and equal volumes of each Axl sample and 500 nM Gas6 were briefly mixed and flowed over the capture beads. Free Gas6 was detected as described and the data was fit using the KinExA Pro 3.6.2 software to obtain the association rate (kon) of the interaction. The dissociation rate (koff) was calculated as the product of the Kd and the kon.
In general terms: In KinExA the mixture passes briefly over coated beads that capture the unbound partner.

B1: MYD1 Fc: Fc fusion of the first generation Axl decoy receptor MYD1 (protein)
chain: APRGTQAEESPFVSNPGNITGARGLTGTLRCQLQVQGEPPEVHWLRDGQILELADSTQTQVPLGEDEQGDWIVASQLRITSLQLSDTGQYQCLVFLGHQTFVSQPGYVRLEGLPYFLEEPEDRTVAANTPFNLSCQAQGPPEPVDLLWLQDAVPLATAPGHGPQRSLHVPGLNKTSSFSCEAHNAKGVTTSRTATITVLPQQPRNLHLVSRQPTELEVAWTPGLSGIYPLTHCTLQAVLSNDGMGIQAGEPDPPEEPLTSQASVPPHQLRLGSLHPHTPYHIRVACTSSQGPSSWTHWLPVETPEGVPLGPPENISATRNGSQAFVHWQEPRAPLQGTLLGYRLAYQGQDTPEVLMDIGLRQEVTLELQGDGSVSNLTVCVAAYTAAGDGPWSLPVPLEAWRPGQAQPVHQLVKEPSTPAFS
modifications: left off: a dimerising Fc or GST
Turning to B1, in the test with free, circulating Gas6 [1], the “in vivo IC50” value was 0.5 mg/kg. Besides, in the test with free, circulating Gas6 [2], the “free, circulating Gas6 in serum” value is on record as “rapidly eliminated free Gas6 upon administration”. Besides, the “Axl and FLT3 phosphorylation” value in test [3] was “inhibited Axl and FLT3 phosphorylation”. Also, the koff with human Gas6 (calculated as the product of the Kd and the kon) is recorded as 1.0 10^−5 s^−1. Moreover, in the test with human Gas6 (direct inject method), the kon was 2.3 10^7 M^−1 s^−1.
